In publication PMC6625852:
One block for each molecule: values may come before it.

How the values were obtained:
[1] = target: human factor VII N360Q mutant, C-terminal V5 tag (human); experiment: co-IP
[2] = target: human factor VII wild-type, C-terminal V5 tag (human); experiment: co-IP

level co-precipitated, percent of that with WT FVII [1]: 230%
Molecule: binding immunoglobulin protein (BiP) (from UniProt P11021 19-654) (natural protein)

level co-precipitated in DNJ-treated cells, percent of WT in untreated cells [2]: 129%
level co-precipitated, percent of that with WT FVII [1]: 124%
B1: calnexin (natural protein)
chain: HDGHDDDVIDIEDDLDDVIEEVEDSKPDTTAPPSSPKVTYKAPVPTGEVYFADSFDRGTLSGWILSKAKKDDTDDEIAKYDGKWEVEEMKESKLPGDKGLVLMSRAKHHAISAKLNKPFLFDTKPLIVQYEVNFQNGIECGGAYVKLLSKTPELNLDQFHDKTPYTIMFGPDKCGEDYKLHFIFRHKNPKTGIYEEKHAKRPDADLKTYFTDKKTHLYTLILNPDNSFEILVDQSVVNSGNLLNDMTPPVNPSREIEDPEDRKPEDWDERPKIPDPEAVKPDDWDEDAPAKIPDEEATKPEGWLDDEPEYVPDPDAEKPEDWDEDMDGEWEAPQIANPRCESAPGCGVWQRPVIDNPNYKGKWKPPMIDNPSYQGIWKPRKIPNPDFFEDLEPFRMTPFSAIGLELWSMTSDIFFDNFIICADRRIVDDWANDGWGLKKAADGAAEPGVVGQMIEAAEERPWLWVVYILTVALPVFLVILFCCSGKKQTSGMEYKKTDAPQPDVKEEEEEKEEEKDKGDEEEEGEEKLEEKQKSDAEEDGGTVSQEEEDRKPKAEEDEILNRSPRNRKPRRE
